Here are results for 83 variants from the RNAGym collection of RNA variant scans (doi:10.1073/pnas.2313332121).

B1: TPR t1 (parent)
chain: GACCAAUCUGCCCUCAGAGCUCGAGAACAUCUUCGGAUGCAGAGGAGGCAGGCUUCGGUGGCGCGAUAGCGCCAACGUCCUCAACCUCCAAUGCAUCCCACCACAUGAUGAUGCCUGAAGAGCCUUGGUUUUUUG

This series covers variants of B1. Briefly: polymerase ribozyme fitness, log enrichment relative to wild type (log ratio); higher = more active; in vitro selection for triplet polymerase activity. The method, boiled down: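 After PCR construction and transcription, each subunit's mutant library from a heterodimeric triplet polymerase ribozyme was annealed with a biotinylated primer, the partner subunit and triplets. Incubation was frozen, at −7 °C, and extended constructs were gel-excised, bound to streptavidin beads and amplified by RT-PCR, in one selection round done in triplicate. Fitness is the logarithm of a genotype's enrichment divided by that of the wild type, from inverse-variance-weighted replicate averages of Illumina-sequenced inputs and outputs. The base of the logarithm is 2, and genotypes needed ≥10 input reads and ≥1 read per output.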
In the case of C20A G45U C53G C88U A111U U125G, the “polymerase ribozyme fitness (log ratio)” value was -4.56.
As for G42A G71A, the figure is -3.35; as for U9G A46C G61A U87A G93C C115A U116C A119C, -3.51; as for C12A A74C G93A C124U U132A, -1.34.
Consider A29G C102A, for which the “polymerase ribozyme fitness (log ratio)” value was -4.16.
As for U7G C72U U81A A91C G107C U112C, the figure is -5.54; as for C12A A111G, 0.3; as for G44A A50G C73U C102A C115G, -5.62.
For the variant C4A G113U, the “polymerase ribozyme fitness (log ratio)” value was -3.74.
As for G61C U125G, the figure is -1.95.
In the case of C40A C89U it was -0.912; in that of U14A C34G G71C A91G C124A, -6.51.
Turning to G19A G77C, the “polymerase ribozyme fitness (log ratio)” value is -2.48.
With U54C C115A G122A C123A U131A, the “polymerase ribozyme fitness (log ratio)” value was -1.4.
As for G44A G60C C124A, the “polymerase ribozyme fitness (log ratio)” value worked out at 0.703.
On to C88A G135U, for which the “polymerase ribozyme fitness (log ratio)” value is -0.929.
In the case of G48A G63A it was -1.14; in that of G48C C62U U87G G110C U116A, -6.41; in that of U33A C72G A74C G127C, -7.04.
As for C40A A50U A95C, the figure is -3.28; as for A95G C98G G120U, -6.09.
In the case of C13G G39U U54A it was -2.59.
Turning to A27G G45C G63A C104A U131C, the “polymerase ribozyme fitness (log ratio)” value was -6.14.
In the case of U7C A16G C70A C94U C104U U112A it was -1.32; in that of C56G C101U, -0.0823.
In the case of C53G A66C A83G A84U it was -3.08; in that of A2G G60C G71U A91C G120C, -6.25; in that of G58U G69U C97A G120C, -1.35.
In the case of A41U C82G it was -2.37; in that of G61A C104U, 0.241.
Regarding C12U A46C C53G G71C A84C A95C, the “polymerase ribozyme fitness (log ratio)” value was -2.46.
As for C11A C49G G63C C79A, the figure is -6.2.
As for C31U G36U G60C C123U, the figure is -5.45.
Take C13A C22A: the “polymerase ribozyme fitness (log ratio)” value is -5.41.
As for C12A C49G G63C C86G U131G, the figure is -3.12.
As for U78C A111U, the figure is -2.5.
In the case of C97G A119G it was -2.68; in that of G60A G63U, -3.96.
On to C4G C88A, for which the “polymerase ribozyme fitness (log ratio)” value is -2.51.
Regarding C89U C124A, the “polymerase ribozyme fitness (log ratio)” value was 0.152.
As to U14G G61C, the “polymerase ribozyme fitness (log ratio)” value is -4.21.
In the case of G63C U126G it was -1.74.
In the case of C13U C70A C72U it was -1.42; in that of U14G A111C G127A, -3.8; in that of C15U C34A G69C, -5.57.
As for A43G A50U G71U, the figure is -5.61; as for C34U C101A, -4.07.
For the variant G10U U21A G60U G71A C89U C101U C124A, the “polymerase ribozyme fitness (log ratio)” value is -6.77.
Consider G17A A46C, for which the “polymerase ribozyme fitness (log ratio)” value is -3.18.
As for C22A G120U U131A, the figure is -4.18; as for C12U A37U A111G C123A, -0.195.
As for G48A C114A, the figure is -2.8.
As for G71U U129C, the figure is -0.505; as for C56G C89A, -2.22.
On to U7G C22G G117U U130C, for which the “polymerase ribozyme fitness (log ratio)” value was -2.69.
For C82G A84G, the “polymerase ribozyme fitness (log ratio)” value is -0.89.
As for G10C C70U A108U U112A U132C, the “polymerase ribozyme fitness (log ratio)” value is -6.08.
As for G52U G61A, the figure is -1.14; as for C53U G61U U78C, 0.151; as for A37U G47U U55G C114U, -3.49.
As for G71A A83G, the figure is -1.61; as for U9C G71U U78G U132A, -0.414.
In the case of A6U A27U A46C G48A C53G C79G C82G G110C it was -6.9.
Regarding C12A U81A, the “polymerase ribozyme fitness (log ratio)” value was -1.96.
In the case of G69U C88U it was -0.366; in that of C8A C31A U129C, -5.73.
In the case of C53G C56G C82G C85A C94G it was -2.28.
C13A A18G C98G G120C: the “polymerase ribozyme fitness (log ratio)” value is -1.26.
Consider C20G C40U C124U U126C, for which the “polymerase ribozyme fitness (log ratio)” value was -4.35.
In the case of C8A U9G C62A, the “polymerase ribozyme fitness (log ratio)” value is -0.773.
With A24G G110A U116G C124A, the “polymerase ribozyme fitness (log ratio)” value was -6.51.
Regarding C31U C85G, the “polymerase ribozyme fitness (log ratio)” value was -5.19.
In the case of C49G U112C G113A it was -2.11.
As for C13G C53G U59C U133G, the figure is -1.68.
In the case of C88A U106A it was -0.303; in that of C22G U38G, -4.45; in that of G17C G63U, -4.39.
Regarding C114A G128U, the “polymerase ribozyme fitness (log ratio)” value is -3.33.
As to C53U G57A G60C G61A C115U, the “polymerase ribozyme fitness (log ratio)” value was -4.03.
As for G44A G71A, the figure is -2.54.
Regarding G25A A26U A43G G61C U78A C102U G110C, the “polymerase ribozyme fitness (log ratio)” value is -7.68.
As for C11G A66C, the figure is -0.842.
Take C12G A27G: the “polymerase ribozyme fitness (log ratio)” value is -1.67.
